In the experiment the target is T1, LacI-CFP-Nup50 (human), Q9UKX7.
T1 chain: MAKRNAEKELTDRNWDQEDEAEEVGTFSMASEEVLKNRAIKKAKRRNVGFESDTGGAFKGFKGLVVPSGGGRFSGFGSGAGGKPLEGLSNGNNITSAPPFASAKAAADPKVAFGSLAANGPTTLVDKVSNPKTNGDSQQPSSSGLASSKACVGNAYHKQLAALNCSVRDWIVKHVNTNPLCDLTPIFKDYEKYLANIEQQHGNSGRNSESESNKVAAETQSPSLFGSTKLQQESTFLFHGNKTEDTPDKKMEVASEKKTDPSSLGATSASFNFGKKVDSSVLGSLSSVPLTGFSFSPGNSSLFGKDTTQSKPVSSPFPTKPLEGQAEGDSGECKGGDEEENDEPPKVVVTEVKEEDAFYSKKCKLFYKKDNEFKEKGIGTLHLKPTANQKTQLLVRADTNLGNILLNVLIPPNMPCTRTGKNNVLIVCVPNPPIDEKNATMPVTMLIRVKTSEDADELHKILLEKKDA
Briefly: LacI/LacO array recruitment in cells. The note with it: remark: other sources report otherwise.

Data on 1 molecule can be found in article PMC4615246.

B1: Nup93 (endogenous), Q8N1F7 1-819 (natural protein)
chain: MDTEGFGELLQQAEQLAAETEGISELPHVERNLQEIQQAGERLRSRTLTRTSQETADVKASVLLGSRGLDISHISQRLESLSAATTFEPLEPVKDTDIQGFLKNEKDNALLSAIEESRKRTFGMAEEYHRESMLVEWEQVKQRILHTLLASGEDALDFTQESEPSYISDVGPPGRSSLDNIEMAYARQIYIYNEKIVNGHLQPNLVDLCASVAELDDKSISDMWTMVKQMTDVLLTPATDALKNRSSVEVRMEFVRQALAYLEQSYKNYTLVTVFGNLHQAQLGGVPGTYQLVRSFLNIKLPAPLPGLQDGEVEGHPVWALIYYCMRCGDLLAASQVVNRAQHQLGEFKTWFQEYMNSKDRRLSPATENKLRLHYRRALRNNTDPYKRAVYCIIGRCDVTDNQSEVADKTEDYLWLKLNQVCFDDDGTSSPQDRLTLSQFQKQLLEDYGESHFTVNQQPFLYFQVLFLTAQFEAAVAFLFRMERLRCHAVHVALVLFELKLLLKSSGQSAQLLSHEPGDPPCLRRLNFVRLLMLYTRKFESTDPREALQYFYFLRDEKDSQGENMFLRCVSELVIESREFDMILGKLENDGSRKPGVIDKFTSDTKPIINKVASVAENKGLFEEAAKLYDLAKNADKVLELMNKLLSPVVPQISAPQSNKERLKNMALSIAERYRAQGISANKFVDSTFYLLLDLITFFDEYHSGHIDRAFDIIERLKLVPLNQESVEERVAAFRNFSDEIRHNLSEVLLATMNILFTQFKRLKGTSPSSSSRPQRVIEDRDSQLRSQARTLITFAGMIPYRTSGDTNARLVQMEVLMN
B1 showed a percent of transfected cells showing colocalization of 28%.
